B1: S-M checkpoint control protein rad4 (Schizosaccharomyces pombe (strain ATCC 38366 / 972)), P32372 (parent)
chain: MGSSKPLKGFVICCTSIDLKQRTEISTKATKLGAAYRSDFTKDVTHLIAGDFDTPKYKFAAKSRPDIKIMSSEWIPVLYESWVQGEDLDDGLLVDKHFLPTLFKCRVCLTNIGQPERSRIENYVLKHGGTFCPDLTRDVTHLIAGTSSGRKYEYALKWKINVVCVEWLWQSIQRNAVLEPQYFQLDMPAEKIGLGAYVRLDPNTTEAKSYSENQKISKNKEKSGQSLAALAEEADLEPVIMKRGKKRDRSILWEELNNGKFEFSSRSEENSVLLDDFTPETVQPLEENELDTELNIENEAKLFKNLTFYLYEFPNTKVSRLHKCLSDNGGQISEFLSSTIDFVVIPHYFPVDELPIFSFPTVNEWWIERCLYYKKIFGIDEHALAKPFFRPSLVPYFNGLSIHLTGFKGEELSHLKKALTILGAVVHEFLGVQRSILLVNTNEPFSMKTRFKIQHATEWNVRVVGVAWLWNIIQSGKFIDQVSPWAIDKKENQEIKKFTNQNNMVFPTSDRDTRLQNSLAQQPIGHSTPHNSPSLLSVKKRQNNHIRSNTLIQLNSNSKDSTIFPRRSVTVPGDKIDTVWKSSVTKPETPTSPQEHVSYIDPDAQREKHKLYAQLTSNVDAIPPANDLQNQENGLLLITESHRKLRRR
partner: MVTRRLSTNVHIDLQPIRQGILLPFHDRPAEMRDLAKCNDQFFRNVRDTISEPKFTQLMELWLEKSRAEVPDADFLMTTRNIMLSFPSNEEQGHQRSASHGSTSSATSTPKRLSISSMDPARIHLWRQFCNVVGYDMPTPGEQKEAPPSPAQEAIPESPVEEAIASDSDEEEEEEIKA

Variants of: B1
Details: with yq61_schpo yq61, O94733

For S171N, which “effect of a mutation on the interaction” value is on record?
The value was “decreasing interaction”.

Source: IntAct's records for PubMed 17272281
